Experiments:
[1] = target: soluble single-chain FcRn (human) (UniProt P55899); test: SPR (BIACORE X), scFcRn amine-coupled to CM5 chip, pH 6.0, two-state reaction model, mean of three runs
[2] = target: soluble single-chain FcRn (human) (UniProt P55899); test: SPR (BIACORE X), scFcRn amine-coupled to CM5 chip, antibody as analyte 25-400 nM, pH 6.0, two-state reaction model, Run 1
[3] = target: soluble single-chain FcRn (human) (UniProt P55899); test: SPR (BIACORE X), scFcRn amine-coupled to CM5 chip, antibody as analyte 25-400 nM, pH 6.0, two-state reaction model, Run 2
[4] = target: soluble single-chain FcRn (human) (UniProt P55899); test: SPR (BIACORE X), scFcRn amine-coupled to CM5 chip, antibody as analyte 25-400 nM, pH 6.0, two-state reaction model, Run 3

Sequence of soluble single-chain FcRn (human) (P55899 24-297 limits assumed, chain 1 of 2): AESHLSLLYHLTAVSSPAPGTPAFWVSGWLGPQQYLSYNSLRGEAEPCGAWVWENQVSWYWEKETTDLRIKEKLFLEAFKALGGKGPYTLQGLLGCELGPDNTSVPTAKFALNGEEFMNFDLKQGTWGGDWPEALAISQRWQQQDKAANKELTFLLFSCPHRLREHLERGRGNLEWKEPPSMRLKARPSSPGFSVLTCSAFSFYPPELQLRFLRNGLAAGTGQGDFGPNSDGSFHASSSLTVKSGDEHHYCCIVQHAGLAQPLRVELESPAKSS
Sequence of soluble single-chain FcRn (human) (P61769 21-119 limits assumed, chain 2 of 2, further chain): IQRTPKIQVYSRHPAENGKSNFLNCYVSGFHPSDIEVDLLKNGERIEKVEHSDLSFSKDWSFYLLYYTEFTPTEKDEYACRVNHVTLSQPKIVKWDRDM

epratuzumab (antibody)
Kd [1]: 16.3 nM
Kd [2]: 15 nM
Kd [3]: 17.9 nM
Kd [4]: 15.8 nM

— patent publication US20160340443A1
